The DeepSol protein solubility set

Assay: soluble on expression in E. coli; label from the status in PepcDB or PDB records

Row | Sequence | soluble on expression in E. coli
1 | MTSIQQRDAQSVLAAIDNLLPEIRDRAQATEDLRRLPDETVKALDDVGFFTLLQPQQWGGLQCDPALFFEATRRLASVCGSTGWVSSIVGVHNWHLALFDQRAQEEVWGEDPSTRISSSYAPMGAGVVVDGGYLVNGSWNWSSGCDHASWTFVGGPVIKDGRPVDFGSFLIPRSEYEIKDVWYVVGLRGTGSNTLVVKDVFVPRHRFLSYKAMNDHTAGGLATNSAPVYKMPWGTMHPTTISAPIVGMAYGAYAAHVEHQGKRVRAAFAGEKAKDDPFAKVRIAEAASDIDAAWRQLIGNVSDEYALLAAGKEIPFELRARARRDQVRATGRSIASIDRLFEASGATALSNEAPIQRFWRDAHAGRVHAANDPERAYVIFGNHEFGLPPGDTMV | soluble
2 | MNQRKLDHEVKTLQVQAAQFAKQTGQWIGMVENFNQALKEIGDVENWARSIELDMRTIATALEYVYKGQLQSAPS | soluble
3 | QHTEERELKKRLMNTARTVSEMTEVKEALARKKQTEAVRHAVEEIRMINEADYIVVMDMNHIRYTHPVSTSIGKKSEGADEEAAFAEHIYFSEAKGEIGTAVRAFYPVKDQDLNQIGVVLVGKTLPGIADILLHLKRD | not soluble
4 | MGSDKIHHHHHHMLPLPPYPLPNSIMWTQIDTHISQVTGEKFQSQQRRSVGGGCINQGYAVSNGEITYFVKLNLASQVAMFEAEALGLKEMLATASIRIPQPICWGVAENSSYIVLEWLELGNGNSNTSLRDAPRWEEMGRKLAAMHQASSSQGFGWKINNTIGSTPQINTWTADWTEFYIKHRLGYQFQLARRRGGSFPQQEKLLAAIRELLTHQVQPSLVHGDLWGGNAGCTASGEPVIFDPATYFGDREVDIAMTELFGGFPAAFYKGYNEVFPLDAGYEQRKTLYNLYHILNHFNLFGGGYASQANRMIDQILR | not soluble
5 | MTFQETISAYIQERYQITPDFPFKKHPDYLVFRHPRNAKWFALIMPLDAQLLGATENKQLTILTVKLAPELIALLKNQPGYFPAYHMNKEHWLSLSEEIPLSQVFSFIDESYQRSYLEHHHHHH | soluble
6 | MTSSLVLILAPLALVAIGEAAFGNSSKIFEIPGLEVMASDKYPHFTTIETVSRTKVHRHRREVIAGQIYDWNSYEIPFQIWGGDYNFQSLIRRGIRMWEDSTCLRFKENQQSRDAIRYVLEKGDSCFTEYIGRNGGHQDIIIGSECAEEYVVAHETGHALGFWHTHQRPDRDRHISINWKNVMEEATASFMPFRSMLQAFGIRQVSPRRVPYDYGSLMHYHAVAHAVKVSDFTIVPKELKYVTTMGTEKMAFLDAKVINDIYCPNACQGRNHLNCLAGGYPDPNNCNVCRCPEGLGGPDCGRLQPSPCGGEIHASDQWQTLSSPSGRDVHCYWRISVPEGSRVRFRLSDGEFPCSYGCQSYVEIKHKLDVRLTGFRSCCYRPKEDTVSESNQIFVIYHPNGRTARFSLRFRRQA | not soluble
7 | MGSDKIHHHHHHMTSALSEAGGYPPEGQGAYFLCDIFDAMPKNDLASMEHPLFSLSTRPDRRILNYEHNGAEITVTPSVKGLATIHDKDILIFCVSQLMAALNAGRQVSRVLHLTAHDLLVACNRETSGDAYRRLRESFERLAGTRITTNITTGGQEITTGFGLIESWEIVRKARGGRMVSVAVTLSDWLYRAVLSKSVLTLSRDYFRLRKPLERRIYELARKHCGRQDSWQISVETLLKKSGSASPRRVFRKMVRDMIESQPLPDYEMAELEGDIIRFSQKAAVVDVPPPVISEAARDEARRLMPGVDVHALEADWRATWARTGAPRLRKPDAAFVGWVRKRMND | not soluble
8 | MGSDKIHHHHHHMRTYRSFKMFTNSSQGVRKVRVGIAGLGTVGGSIYRILKERGNEIEKRIGEKFIISKVINRSPQKYELLGVPKEEIAFDFDDLILNSDVVVEAIGGTDVAVDLVRRALELGRIVVTPNKNLISEYGNEFSEYIKKRKLFFEASVGGGIPIISLLQDYLIFQKVTRIRGIMNGTTNYILTEMSKGRHFEEVLKEAQELGYAEADPTNDIEGYDVAYKVSVLAGVVTGRFPGINSVQFEGITRIDPEYLKEIVRSGKKLKLIGELDFSTNRYEVRLREVTPEDPFFNVDGVDNAIEVSTDLAGDFLLKGRGAGGYPTASAVIADLFRVAKYKVLGGAEKFSVVVMKFGGAAISDVEKLEKVAEKIIKRKKSGVKPVVVLSAMGDTTDHLIELAKTIDENPDPRELDLLLSTGEIQSVALMSIALRKRGYKAISFTGNQLKIITDKRYGSARIIDINTDIISRYLKQDFIPVVAGFQGITETGDITTLGRGGSDLTAIALAYSLGADLCELYKDVDGVYTADPRIVKDARVIKELSWEEMIELSRHGAQVLQARAAEFARKYGVKVLIKNAHKETRGTLIWEGTKVENPIVRAVTFEDGMAKVVLKDVPDKPGVAARIMRTLSQMGVNIDMIIQGMKSGEYNTVAFIVPESQLGKLDIDLLKTRSEAKEIIIEKGLAKVSIVGVNLTSTPEISATLFETLANEGINIDMISASSSRISVIIDGKYVEDAVKAIHSRFELDRE | not soluble
9 | EGIPWEGNYTSWLEQKDARLQQEASQESARQKTIEKELEWVRKNPKGRQAKSKARMARFEELQNTEHQKRNETNELFIPPGER | soluble
10 | MSLGFHEVRFPTNLSFGSIGGPERRTEIVTLVNGFEERNSLWAHSRRRYDAGVALRSLDDIQALLAFFEARRGQLYGFRWKDWADYRSCPATASPGPKDQPLGIGDGISREFALVKTYRSGSEQYVRPVAKPVAGSVKVAVAGAVLVEGAGFSVDETRGLVTLAAAPAEGAAVTAGFEFDVPVRFDTDRIQISMASFQAGEVPSVPVMEVRVEGHHHHHH | soluble
11 | MATNWGSLLQDKQQLEELARQAVDRALAEGVLLRTSQEPTSSEVVSYAPFTLFPSLVPSALLEQAYAVQMDFNLLVDAVSQNAAFLEQTLSSTIKQDDFTARLFDIHKQVLKEGIAQTVFLGLNRSDYMFQRSADGSPALKQIEINTISASFGGLASRTPAVHRHVLSVLSKTKEAGKILSNNPSKGLALGIAKAWELYGSPNALVLLIAQEKERNIFDQRAIENELLARNIHVIRRTFEDISEKGSLDQDRRLFVDGQEIAVVYFRDGYMPRQYSLQNWEARLLLERSHAAKCPDIATQLAGTKKVQQELSRPGMLEMLLPGQPEAVARLRATFAGLYSLDVGEEGDQAIAEALAAPSRFVLKPQREGGGNNLYGEEMVQALKQLKDSEERASYILMEKIEPEPFENCLLRPGSPARVVQCISELGIFGVYVRQEKTLVMNKHVGHLLRTKAIEHADGGVAAGVAVLDNPYPV | soluble
12 | VETISFSFSEFEPGNNDLTLQGAAIITQSGVLQLTKINQNGMPAWDSTGRTLYTKPVHIWDMTTGTVASFETRFSFSIEQPYTRPLPADGLVFFMGPTKSKPAQGYGYLGVFNNSKQDNSYQTLAVEFDTFSNPWDPPQVPHIGIDVNSIRSIKTQPFQLDNGQVANVVIKYDASSKILLAVLVYPSSGAIYTIAEIVDVKQVLPEWVDVGLSGATGAQRDAAETHDVYSWSFHASLPETND | soluble
13 | MGSDKIHHHHHHMYKTYREEERKSVDRGIFKEVPLPCAFLDEVALDRNIQLIIELSGNKKIRIASKSLRSVPVMQKILAANDRFQGIMCFSPREVLFLIEQGFNDLLLGYPAYDDRALHEISLLTKQGLIITCMVDCEDHIVYLEKIAEKSKGCFRVCLDIDMSSRFLNFHFGVKRSPVRDVQGALKIVKRLKESSFLILDGVMGYEAQIAGVGDHIPNQRVKSKVISYLKKKSVLEVKARRGHIVKEIQNLGIELRFVNGGGTGSIKTTEQDHSVSEITIGSAFYAPKLFDYYKEVQLQPAVGFALPVVRKPAPTIYTCLGGGYIASGAIGKDKEPEIWRPNGAKLLALEGAGEVQTPIFYNGEERVEIGDSILFRHSKAGELCERFPFLYRVKEGEIVGEYSTYRGDGQCFL | not soluble
14 | MGSDKIHHHHHHMTTDLEQQFEFLTEIERLREVERQNLLLDGSRVENSAEHSWHLALYALVFAPYAPSDVSITRVIEMLLLHDIVEIDVGDHPIDEPTDWEAVAQAEDRAQRRIFGLLPEAQGHRLQALWQEFEAAHTADARFAKSLDYCQPIFQTLCAVSPPADHLRVVRENLTTGRATSLRERFPEAYAAACSLIDGQTVSDPDFAARLAFLSEADRLKSVLRASRIASGTRYENSAEHSWHIMLYGWILAPHSLSEVDVSRVLKMLLLHDLVEIDAGDVPIHSNLDAAALRQIEETEKAAAERIFGLLPDAQAKDCLMIWQEFEAAQSADAVFAKSIDRVQPVLLNIATGGGSWVAYDVTLPQLETRVGVKIARGAPKVWDHVRALLLPWFTAQGRL | not soluble
